# In IntAct's records for PubMed 20561531:
# B1: PRKC apoptosis WT1 regulator protein (Homo sapiens), Q96IZ0 (parent)
# chain: MATGGYRTSSGLGGSTTDFLEEWKAKREKMRAKQNPPGPAPPGGGSSDAAGKPPAGALGTPAAAAANELNNNLPGGAPAAPAVPGPGGVNCAVGSAMLTRAAPGPRRSEDEPPAASASAAPPPQRDEEEPDGVPEKGKSSGPSARKGKGQIEKRKLREKRRSTGVVNIPAAECLDEYEDDEAGQKERKREDAITQQNTIQNEAVNLLDPGSSYLLQEPPRTVSGRYKSTTSVSEEDVSSRYSRTDRSGFPRYNRDANVSGTLVSSSTLEKKIEDLEKEVVRERQENLRLVRLMQDKEEMIGKLKEEIDLLNRDLDDIEDENEQLKQENKTLLKVVGQLTR
# B2: SPRY domain-containing SOCS box protein 2 (Mus musculus), O88838 (parent)
# chain: MGQTALARGSSSTPTSQALYSDFSPPEGLEELLSAPPPDLVAQRHHGWNPKDCSENIDVKEGGLCFERRPVAQSTDGVRGKRGYSRGLHAWEISWPLEQRGTHAVVGVATALAPLQADHYAALLGSNSESWGWDIGRGKLYHQSKGLEAPQYPAGPQGEQLVVPERLLVVLDMEEGTLGYSIGGTYLGPAFRGLKGRTLYPSVSAVWGQCQVRIRYMGERRVEEPQSLLHLSRLCVRHALGDTRLGQISTLPLPPAMKRYLLYK
# partner: B1 chain
# B3: PRKC apoptosis WT1 regulator protein (Homo sapiens), Q96IZ0 (parent)
# chain: B1 chain
# partner: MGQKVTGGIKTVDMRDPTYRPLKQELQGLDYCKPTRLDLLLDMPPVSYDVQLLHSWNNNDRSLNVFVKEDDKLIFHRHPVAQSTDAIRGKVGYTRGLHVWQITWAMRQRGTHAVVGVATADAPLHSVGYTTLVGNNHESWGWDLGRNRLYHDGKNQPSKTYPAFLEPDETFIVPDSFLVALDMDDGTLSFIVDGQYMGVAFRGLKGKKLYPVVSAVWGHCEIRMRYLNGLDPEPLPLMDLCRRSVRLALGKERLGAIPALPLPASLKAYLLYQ
# Variants of: B1
# Settings: with spsb2_mouse Spsb2, O88838
row,Variant,effect of a mutation on the interaction
1,N71A,disrupting interaction
2,N70A,disrupting interaction
3,E68D,increasing interaction

# More lines, now with the values ahead:
row,effect of a mutation on the interaction,Variant
1,increasing interaction,L69I
2,increasing interaction,E68D;L69I

# Variants of: B1
# Settings: with spsb4_mouse Spsb4, Q8R5B6
# spsb4_mouse Spsb4, Q8R5B6, sequence (Q8R5B6 whole entry): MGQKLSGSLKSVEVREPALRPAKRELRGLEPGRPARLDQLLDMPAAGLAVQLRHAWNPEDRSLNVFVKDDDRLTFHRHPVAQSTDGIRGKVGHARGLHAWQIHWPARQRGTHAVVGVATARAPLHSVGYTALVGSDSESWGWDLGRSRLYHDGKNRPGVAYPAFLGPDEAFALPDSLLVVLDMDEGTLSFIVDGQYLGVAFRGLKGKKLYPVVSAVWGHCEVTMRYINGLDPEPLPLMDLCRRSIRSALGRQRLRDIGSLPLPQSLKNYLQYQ
row,Variant,effect of a mutation on the interaction
1,N71A,disrupting interaction
2,N70A,disrupting interaction
3,E68D,increasing interaction

# The next lines start with the values.
row,effect of a mutation on the interaction,Variant
1,increasing interaction,L69I
2,increasing interaction,E68D;L69I

# Variants of: B1
# Settings: with spsb2_mouse Spsb2, O88838
# Remark: another data set of the same source
row,effect of a mutation on the interaction,Variant
1,disrupting interaction,N72A

# Variants of: B1
# Settings: with spsb4_mouse Spsb4, Q8R5B6
# Remark: another data set of the same source
row,effect of a mutation on the interaction,Variant
1,disrupting interaction,N72A

# Variants of: B2
# Settings: with pawr_human PAWR, Q96IZ0
row,effect of a mutation on the interaction,Variant
1,disrupting interaction,L123A;L124A;G125A
2,disrupting interaction,Y120A
3,disrupting interaction,V206A
4,disrupting interaction,S126A;N127A;S128A

# Variants of: B3
# Settings: with spsb1_mouse Spsb1, Q9D5L7
row,effect of a mutation on the interaction,Variant
1,disrupting interaction,N71A
2,disrupting interaction,N70A
3,increasing interaction,E68D;L69I
